Patent publication US10737081B2, “Painless and patchless shooting microstructure” (JUVIC INC., priority 2013, dated 2020)

Columns and labels:
diabetogenic mice = assay: In vivo delivery efficiency test: plasma glucose levels in diabetogenic mice; details: 0.2 IU insulin, subcutaneous injection
Experimental: In this experiment, male C57BL/6 mice (7 to 8 week-old, OrientBio) were used. Animal experiments were conducted according to the Guide for the Care and Use of Laboratory Animals by the Severance Hospital Ethics Committee (Reference No.: 09-013, College of Pharmacy, Yonsei University, Korea). […] For successful diabetes induction, the blood glucose concentrations of all the mice were measured using a OneTouch Verio IQ system. […] Diabetogenic mice were divided into four groups, as follows: (a) an untreated group (a negative control); (b) a subcutaneously injected group (0.2 IU, a positive control); […] The mice were fasted during an experiment period, and freely fed with water. […] After 6 hours of the treatment, blood samples (0.1 ml) were taken from wounded tail vein areas every one hour. […] The plasma glucose levels per hour in each group were measured using a glucose CII-Test kit. The plasma insulin concentrations were measured using an insulin ELISA kit (ALPCO). To examine the in vivo delivery efficiency by DMN patch and subcutaneous injection (SC) methods and through the microlancer, insulin was administered to diabetogenic mice using each of the methods, and changes in blood glucose levels were measured. […] Insulin was administered using each of the methods, and changes in plasma glucose levels in the diabetogenic mice were measured after the elapse of 6 hours (see FIG. 17B).

[1] = In vivo delivery efficiency test: plasma insulin concentrations in diabetogenic mice; details: 0.2 IU insulin, subcutaneous injection
Experimental: In this experiment, male C57BL/6 mice (7 to 8 week-old, OrientBio) were used. Animal experiments were conducted according to the Guide for the Care and Use of Laboratory Animals by the Severance Hospital Ethics Committee (Reference No.: 09-013, College of Pharmacy, Yonsei University, Korea). The mice were anesthetized with Avertin (2,2,2-tribromoethanol, Sigma-Aldrich), and 50 mg/kg of streptozotocin in a sodium citrate buffer (pH=4.5) was intravenously injected into the mice to induce diabetes. For successful diabetes induction, the blood glucose concentrations of all the mice were measured using a OneTouch Verio IQ system.
Diabetogenic mice were divided into four groups, as follows: (a) an untreated group (a negative control); (b) a subcutaneously injected group (0.2 IU, a positive control); (c) a patch-treated group (0.2 IU insulin-loaded DMNs); and (d) a microlancer-treated group (0.2 IU insulin-loaded DMNs) (n=5 per group). The mice were fasted during an experiment period, and freely fed with water. The back regions of the mice were shaved using an electric shaver, and 0.2 IU of insulin was administered by means of a DMN patch through a microlancer or by subcutaneous injection. […] The plasma glucose levels per hour in each group were measured using a glucose CII-Test kit. The plasma insulin concentrations were measured using an insulin ELISA kit (ALPCO).

Substance: insulin: Humalog insulin purchased from Eli Lilly; 0.2 IU subcutaneously injected as positive control
- time of lowest blood glucose level compared to insertion through the microlancer (diabetogenic mice): an hour earlier
- maximum plasma insulin concentration [1]: 156 μIU/ml
- time of peaks for the plasma insulin concentration [1]: an hour
